Laboratory results as given in patent US20180155451A1 (published 2018).

B1: GpH7-B3 variant I332_02A/GpL16-k0 (antibody, human IgG1, kappa)
heavy: not shown
light: DIVMTQSPLSLPVTPGEPASISCQASESLVHSNRNTYLHWYLQKPGQSPQLLIYKVSNRFSGVPDRFSGSGSGTDFTLKISRVEAEDVGVYYCSQNTHVPPTFGQGTKVEIERTVAAPSVFIFPPSDEQLKSGTASVVCLLNNFYPREAKVQWKVDNALQSGNSQESVTEQDSKDSTYSLSSTLTLSKADYEKHKVYACEVTHQGLSSPVTKSFNRGEC
notes: also called Ho Ab I332_02A
B2: GpH7-B3 variant L328_14T/GpL16-k0 (antibody, human IgG1, kappa)
heavy: not shown
light: B1 light
notes: also called Ho Ab L328_14T
B3: GpH7-B3 variant K334_16H/GpL16-k0 (antibody, human IgG1, kappa)
heavy: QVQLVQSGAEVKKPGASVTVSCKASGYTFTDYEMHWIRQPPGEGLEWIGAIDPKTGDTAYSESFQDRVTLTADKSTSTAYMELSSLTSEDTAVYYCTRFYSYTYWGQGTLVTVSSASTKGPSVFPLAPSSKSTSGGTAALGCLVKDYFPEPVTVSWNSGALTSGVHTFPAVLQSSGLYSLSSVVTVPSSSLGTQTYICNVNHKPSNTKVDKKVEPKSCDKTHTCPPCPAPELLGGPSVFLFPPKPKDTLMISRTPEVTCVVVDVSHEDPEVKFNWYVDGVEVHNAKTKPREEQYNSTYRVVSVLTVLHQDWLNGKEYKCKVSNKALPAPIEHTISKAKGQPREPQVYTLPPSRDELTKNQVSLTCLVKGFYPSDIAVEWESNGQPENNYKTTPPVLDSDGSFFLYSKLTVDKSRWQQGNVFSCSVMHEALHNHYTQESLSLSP
light: B1 light
notes: also called Ho Ab K334_16H
B4: GpH7-B3 variant L328_13S/GpL16-k0 (antibody, human IgG1, kappa)
heavy: not shown
light: B1 light
notes: also called Ho Ab L328_13S
B5: GpH7-B3 variant K326_19Q/GpL16-k0 (antibody, human IgG1, kappa)
heavy: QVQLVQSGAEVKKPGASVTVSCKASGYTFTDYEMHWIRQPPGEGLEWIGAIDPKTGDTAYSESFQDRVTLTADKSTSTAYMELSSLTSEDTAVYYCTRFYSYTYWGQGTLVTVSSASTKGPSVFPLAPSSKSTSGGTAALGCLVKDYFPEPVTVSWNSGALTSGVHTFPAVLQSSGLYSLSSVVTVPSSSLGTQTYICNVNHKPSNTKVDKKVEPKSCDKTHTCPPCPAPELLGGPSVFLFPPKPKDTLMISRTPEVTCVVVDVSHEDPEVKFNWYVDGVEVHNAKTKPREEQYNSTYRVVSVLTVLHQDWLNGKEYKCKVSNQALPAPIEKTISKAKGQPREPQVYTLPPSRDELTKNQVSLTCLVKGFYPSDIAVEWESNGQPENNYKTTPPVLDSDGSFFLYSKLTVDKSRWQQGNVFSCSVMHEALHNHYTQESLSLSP
light: B1 light
notes: also called Ho Ab K326_19Q
B6: GpH7-B3 variant I332_18N/GpL16-k0 (antibody, human IgG1, kappa)
heavy: not shown
light: B1 light
notes: also called Ho Ab I332_18N
B7: GpH7-B3 variant I332_06M/GpL16-k0 (antibody, human IgG1, kappa)
heavy: not shown
light: B1 light
notes: also called Ho Ab I332_06M
B8: GpH7-B3 variant S337_14T/GpL16-k0 (antibody, human IgG1, kappa)
heavy: not shown
light: B1 light
notes: also called Ho Ab S337_14T
B9: GpH7-B3 variant Q295_07I/GpL16-k0 (antibody, human IgG1, kappa)
heavy: not shown
light: B1 light
notes: also called Ho Ab Q295_07I
B10: GpH7-B3 variant I332_09D/GpL16-k0 (antibody, human IgG1, kappa)
heavy: not shown
light: B1 light
notes: also called Ho Ab I332_09D
B11: GpH7-B3 variant H268_13S/GpL16-k0 (antibody, human IgG1, kappa)
heavy: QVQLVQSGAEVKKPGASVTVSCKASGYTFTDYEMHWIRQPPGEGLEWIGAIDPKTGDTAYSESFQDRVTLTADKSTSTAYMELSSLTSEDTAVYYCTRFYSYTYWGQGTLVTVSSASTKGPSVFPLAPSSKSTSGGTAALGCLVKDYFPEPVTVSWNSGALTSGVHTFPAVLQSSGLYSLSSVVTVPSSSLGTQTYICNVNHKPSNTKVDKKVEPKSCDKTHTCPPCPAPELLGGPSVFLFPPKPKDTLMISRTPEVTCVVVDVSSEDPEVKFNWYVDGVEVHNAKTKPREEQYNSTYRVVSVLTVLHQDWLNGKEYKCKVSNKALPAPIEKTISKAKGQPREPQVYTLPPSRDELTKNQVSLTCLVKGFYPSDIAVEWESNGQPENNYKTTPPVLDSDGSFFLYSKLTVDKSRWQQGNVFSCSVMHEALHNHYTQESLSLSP
light: B1 light
notes: also called Ho Ab H268_13S
B12: GpH7-B3 variant L328_06M/GpL16-k0 (antibody, human IgG1, kappa)
heavy: not shown
light: B1 light
notes: also called Ho Ab L328_06M
B13: GpH7-B3 variant I336_08L/GpL16-k0 (antibody, human IgG1, kappa)
heavy: not shown
light: B1 light
notes: also called Ho Ab I336_08L
B14: GpH7-B3 variant K334_04F/GpL16-k0 (antibody, human IgG1, kappa)
heavy: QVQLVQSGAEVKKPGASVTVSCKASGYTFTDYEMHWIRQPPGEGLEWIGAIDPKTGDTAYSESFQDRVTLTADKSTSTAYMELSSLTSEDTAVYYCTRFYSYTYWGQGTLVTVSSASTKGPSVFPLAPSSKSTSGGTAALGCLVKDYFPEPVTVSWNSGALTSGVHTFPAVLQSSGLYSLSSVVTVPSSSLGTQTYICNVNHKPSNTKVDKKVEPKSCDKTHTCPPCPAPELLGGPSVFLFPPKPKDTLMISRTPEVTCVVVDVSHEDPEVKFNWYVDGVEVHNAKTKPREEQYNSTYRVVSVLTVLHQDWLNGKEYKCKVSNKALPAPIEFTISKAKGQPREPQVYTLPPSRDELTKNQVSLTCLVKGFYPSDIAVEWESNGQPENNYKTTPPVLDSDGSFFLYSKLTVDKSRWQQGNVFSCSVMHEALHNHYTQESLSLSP
light: B1 light
notes: also called Ho Ab K334_04F
B15: GpH7-B3 variant K326_06M/GpL16-k0 (antibody, human IgG1, kappa)
heavy: not shown
light: B1 light
notes: also called Ho Ab K326_06M
B16: GpH7-B3 variant S337_16H/GpL16-k0 (antibody, human IgG1, kappa)
heavy: not shown
light: B1 light
notes: also called Ho Ab S337_16H
B17: GpH7-B3 variant I332_14T/GpL16-k0 (antibody, human IgG1, kappa)
heavy: not shown
light: B1 light
notes: also called Ho Ab I332_14T
B18: GpH7-B3 variant I332_04F/GpL16-k0 (antibody, human IgG1, kappa)
heavy: not shown
light: B1 light
notes: also called Ho Ab I332_04F
B19: GpH7-B3 variant I332_10E/GpL16-k0 (antibody, human IgG1, kappa)
heavy: not shown
light: B1 light
notes: also called Ho Ab I332_10E
B20: GpH7-B3 variant S324_20W/GpL16-k0 (antibody, human IgG1, kappa)
heavy: not shown
light: B1 light
notes: also called Ho Ab S324_20W
B21: GpH7-B3 variant H268_18N/GpL16-k0 (antibody, human IgG1, kappa)
heavy: not shown
light: B1 light
notes: also called Ho Ab H268_18N
B22: GpH7-B3 variant T335_07I/GpL16-k0 (antibody, human IgG1, kappa)
heavy: not shown
light: B1 light
notes: also called Ho Ab T335_07I
B23: GpH7-B3 variant I332_15Y/GpL16-k0 (antibody, human IgG1, kappa)
heavy: not shown
light: B1 light
notes: also called Ho Ab I332_15Y
B24: GpH7-B3 variant S337_10E/GpL16-k0 (antibody, human IgG1, kappa)
heavy: not shown
light: B1 light
notes: also called Ho Ab S337_10E
B25: GpH7-B3 variant K334_03V/GpL16-k0 (antibody, human IgG1, kappa)
heavy: not shown
light: B1 light
notes: also called Ho Ab K334_03V
B26: GpH7-B3 variant P271_01G/GpL16-k0 (antibody, human IgG1, kappa)
heavy: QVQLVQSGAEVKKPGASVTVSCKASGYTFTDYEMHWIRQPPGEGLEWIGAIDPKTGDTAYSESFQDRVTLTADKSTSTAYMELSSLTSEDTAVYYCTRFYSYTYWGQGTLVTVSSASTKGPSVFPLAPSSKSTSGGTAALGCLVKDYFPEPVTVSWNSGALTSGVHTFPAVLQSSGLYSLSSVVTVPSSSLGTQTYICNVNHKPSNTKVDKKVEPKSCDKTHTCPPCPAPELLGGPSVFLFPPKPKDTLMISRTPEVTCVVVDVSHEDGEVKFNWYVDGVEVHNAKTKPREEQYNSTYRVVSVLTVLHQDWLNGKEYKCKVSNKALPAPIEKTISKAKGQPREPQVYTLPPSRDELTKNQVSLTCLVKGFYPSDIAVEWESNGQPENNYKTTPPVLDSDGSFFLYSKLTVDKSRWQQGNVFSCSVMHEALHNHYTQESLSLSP
light: B1 light
notes: also called Ho Ab P271_01G
B27: GpH7-B3 variant I332_13S/GpL16-k0 (antibody, human IgG1, kappa)
heavy: not shown
light: B1 light
notes: also called Ho Ab I332_13S
B28: GpH7-B3 variant K334_14T/GpL16-k0 (antibody, human IgG1, kappa)
heavy: not shown
light: B1 light
notes: also called Ho Ab K334_14T
B29: GpH7-B3 variant K334_15Y/GpL16-k0 (antibody, human IgG1, kappa)
heavy: not shown
light: B1 light
notes: also called Ho Ab K334_15Y
B30: GpH7-B3 variant K326_10E/GpL16-k0 (antibody, human IgG1, kappa)
heavy: not shown
light: B1 light
notes: also called Ho Ab K326_10E
B31: GpH7-B3 variant I336_06M/GpL16-k0 (antibody, human IgG1, kappa)
heavy: not shown
light: B1 light
notes: also called Ho Ab I336_06M
B32: GpH7-B3 variant S337_09D/GpL16-k0 (antibody, human IgG1, kappa)
heavy: not shown
light: B1 light
notes: also called Ho Ab S337_09D
B33: GpH7-B3 variant S239_09D/GpL16-k0 (antibody, human IgG1, kappa)
heavy: not shown
light: B1 light
notes: also called Ho Ab S239_09D
B34: GpH7-B3 variant I332_19Q/GpL16-k0 (antibody, human IgG1, kappa)
heavy: not shown
light: B1 light
notes: also called Ho Ab I332_19Q
B35: GpH7-B3 variant H268_10E/GpL16-k0 (antibody, human IgG1, kappa)
heavy: not shown
light: B1 light
notes: also called Ho Ab H268_10E
B36: GpH7-B3 variant K334_08L/GpL16-k0 (antibody, human IgG1, kappa)
heavy: not shown
light: B1 light
notes: also called Ho Ab K334_08L
B37: GpH7-B3 variant S324_06M/GpL16-k0 (antibody, human IgG1, kappa)
heavy: not shown
light: B1 light
notes: also called Ho Ab S324_06M
B38: GpH7-B3 variant L235_20W/GpL16-k0 (antibody, human IgG1, kappa)
heavy: not shown
light: B1 light
notes: also called Ho Ab L235_20W
B39: GpH7-B3 variant K326_09D/GpL16-k0 (antibody, human IgG1, kappa)
heavy: not shown
light: B1 light
notes: also called Ho Ab K326_09D
B40: GpH7-B3 variant I332_16H/GpL16-k0 (antibody, human IgG1, kappa)
heavy: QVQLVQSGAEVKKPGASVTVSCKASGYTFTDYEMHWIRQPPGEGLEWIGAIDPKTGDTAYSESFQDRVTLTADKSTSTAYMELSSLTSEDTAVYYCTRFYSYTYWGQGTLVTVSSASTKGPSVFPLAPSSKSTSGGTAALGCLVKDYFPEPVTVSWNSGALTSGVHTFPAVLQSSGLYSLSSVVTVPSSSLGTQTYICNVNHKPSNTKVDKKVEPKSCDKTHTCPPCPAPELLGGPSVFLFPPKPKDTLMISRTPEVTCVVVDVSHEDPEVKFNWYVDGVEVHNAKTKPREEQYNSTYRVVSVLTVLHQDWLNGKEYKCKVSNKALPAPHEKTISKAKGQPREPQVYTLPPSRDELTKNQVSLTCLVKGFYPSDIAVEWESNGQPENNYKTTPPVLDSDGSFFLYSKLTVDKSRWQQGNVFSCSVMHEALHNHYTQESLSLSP
light: B1 light
notes: also called Ho Ab I332_16H
B41: GpH7-B3 variant I332_03V/GpL16-k0 (antibody, human IgG1, kappa)
heavy: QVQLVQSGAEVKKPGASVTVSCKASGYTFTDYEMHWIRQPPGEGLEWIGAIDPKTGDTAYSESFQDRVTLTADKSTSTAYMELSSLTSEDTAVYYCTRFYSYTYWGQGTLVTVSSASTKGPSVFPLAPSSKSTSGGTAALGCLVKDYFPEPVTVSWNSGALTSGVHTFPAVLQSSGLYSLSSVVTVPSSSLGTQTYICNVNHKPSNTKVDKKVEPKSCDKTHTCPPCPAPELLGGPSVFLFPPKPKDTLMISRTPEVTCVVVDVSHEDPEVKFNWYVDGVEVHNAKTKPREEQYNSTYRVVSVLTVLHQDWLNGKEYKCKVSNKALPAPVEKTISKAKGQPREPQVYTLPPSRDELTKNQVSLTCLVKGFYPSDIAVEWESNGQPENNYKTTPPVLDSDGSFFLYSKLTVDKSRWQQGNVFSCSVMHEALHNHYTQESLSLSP
light: B1 light
notes: also called Ho Ab I332_03V
B42: GpH7-B3 variant S267_02A/GpL16-k0 (antibody, human IgG1, kappa)
heavy: not shown
light: B1 light
notes: also called Ho Ab S267_02A
B43: GpH7-B3 variant H268_09D/GpL16-k0 (antibody, human IgG1, kappa)
heavy: not shown
light: B1 light
notes: also called Ho Ab H268_09D
B44: GpH7-B3 variant S324_10E/GpL16-k0 (antibody, human IgG1, kappa)
heavy: not shown
light: B1 light
notes: also called Ho Ab S324_10E
B45: GpH7-B3 variant G236_07I/GpL16-k0 (antibody, human IgG1, kappa)
heavy: not shown
light: B1 light
notes: also called Ho Ab G236_07I
B46: GpH7-B3 variant Q295_05P/GpL16-k0 (antibody, human IgG1, kappa)
heavy: not shown
light: B1 light
notes: also called Ho Ab Q295_05P
B47: GpH7-B3 variant S324_09D/GpL16-k0 (antibody, human IgG1, kappa)
heavy: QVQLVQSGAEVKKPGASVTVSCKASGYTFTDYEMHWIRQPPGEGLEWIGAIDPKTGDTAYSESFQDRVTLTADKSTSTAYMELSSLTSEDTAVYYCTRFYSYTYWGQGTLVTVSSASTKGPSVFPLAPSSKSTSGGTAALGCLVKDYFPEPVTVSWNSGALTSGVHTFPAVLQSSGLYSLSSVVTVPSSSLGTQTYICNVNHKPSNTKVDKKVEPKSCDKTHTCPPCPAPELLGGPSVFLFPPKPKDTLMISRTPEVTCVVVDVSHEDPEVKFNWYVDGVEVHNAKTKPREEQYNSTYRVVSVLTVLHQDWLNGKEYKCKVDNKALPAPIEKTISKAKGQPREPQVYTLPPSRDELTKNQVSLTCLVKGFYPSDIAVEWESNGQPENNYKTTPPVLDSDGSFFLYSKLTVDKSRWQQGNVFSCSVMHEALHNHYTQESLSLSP
light: B1 light
notes: also called Ho Ab S324_09D
B48: GpH7-B3 variant K334_07I/GpL16-k0 (antibody, human IgG1, kappa)
heavy: not shown
light: B1 light
notes: also called Ho Ab K334_07I
B49: GpH7-B3 variant S324_02A/GpL16-k0 (antibody, human IgG1, kappa)
heavy: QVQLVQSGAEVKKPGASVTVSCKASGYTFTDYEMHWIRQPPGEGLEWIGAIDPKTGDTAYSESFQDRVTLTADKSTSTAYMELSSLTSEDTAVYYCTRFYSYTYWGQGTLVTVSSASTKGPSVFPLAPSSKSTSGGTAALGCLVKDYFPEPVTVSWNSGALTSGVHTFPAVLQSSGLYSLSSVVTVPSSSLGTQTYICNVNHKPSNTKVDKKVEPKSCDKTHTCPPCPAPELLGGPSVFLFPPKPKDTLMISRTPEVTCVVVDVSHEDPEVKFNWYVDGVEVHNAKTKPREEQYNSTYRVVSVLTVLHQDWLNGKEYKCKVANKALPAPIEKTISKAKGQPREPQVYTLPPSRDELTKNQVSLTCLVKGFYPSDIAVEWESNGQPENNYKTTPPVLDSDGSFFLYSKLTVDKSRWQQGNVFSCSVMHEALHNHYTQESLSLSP
light: B1 light
notes: also called Ho Ab S324_02A
B50: GpH7-B3 variant G236_10E/GpL16-k0 (antibody, human IgG1, kappa)
heavy: not shown
light: B1 light
notes: also called Ho Ab G236_10E
B51: GpH7-B3 variant G236_03V/GpL16-k0 (antibody, human IgG1, kappa)
heavy: not shown
light: B1 light
notes: also called Ho Ab G236_03V
B52: GpH7-B3 variant K326_14T/GpL16-k0 (antibody, human IgG1, kappa)
heavy: not shown
light: B1 light
notes: also called Ho Ab K326_14T
B53: GpH7-B3 variant A330_12R/GpL16-k0 (antibody, human IgG1, kappa)
heavy: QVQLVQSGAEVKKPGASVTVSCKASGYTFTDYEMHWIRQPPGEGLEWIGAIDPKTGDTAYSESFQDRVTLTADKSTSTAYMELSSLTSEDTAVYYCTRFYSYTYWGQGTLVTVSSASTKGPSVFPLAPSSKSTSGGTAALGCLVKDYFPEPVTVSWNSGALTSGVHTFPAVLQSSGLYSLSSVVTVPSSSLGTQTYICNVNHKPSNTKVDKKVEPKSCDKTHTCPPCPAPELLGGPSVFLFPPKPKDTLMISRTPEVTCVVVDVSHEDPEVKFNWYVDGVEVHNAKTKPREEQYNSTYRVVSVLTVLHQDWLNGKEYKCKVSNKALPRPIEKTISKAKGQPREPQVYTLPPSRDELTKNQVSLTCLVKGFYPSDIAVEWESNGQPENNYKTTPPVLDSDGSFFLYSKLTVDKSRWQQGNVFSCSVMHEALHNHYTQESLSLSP
light: B1 light
notes: also called Ho Ab A330_12R
B54: GpH7-B3 variant L328_02A/GpL16-k0 (antibody, human IgG1, kappa)
heavy: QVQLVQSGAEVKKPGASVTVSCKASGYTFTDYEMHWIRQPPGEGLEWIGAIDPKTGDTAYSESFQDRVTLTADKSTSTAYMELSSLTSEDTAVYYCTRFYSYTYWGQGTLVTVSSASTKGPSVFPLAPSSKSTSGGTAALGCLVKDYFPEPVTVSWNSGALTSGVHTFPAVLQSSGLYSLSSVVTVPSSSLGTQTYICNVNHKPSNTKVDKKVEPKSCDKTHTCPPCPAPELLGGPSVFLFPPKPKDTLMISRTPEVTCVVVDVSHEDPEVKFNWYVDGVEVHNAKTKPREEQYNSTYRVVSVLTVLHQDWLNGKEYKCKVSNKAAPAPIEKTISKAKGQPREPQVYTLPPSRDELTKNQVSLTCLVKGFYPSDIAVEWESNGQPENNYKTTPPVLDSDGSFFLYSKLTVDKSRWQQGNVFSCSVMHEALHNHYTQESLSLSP
light: B1 light
notes: also called Ho Ab L328_02A
B55: GpH7-B3 variant T335_01G/GpL16-k0 (antibody, human IgG1, kappa)
heavy: not shown
light: B1 light
notes: also called Ho Ab T335_01G

Molecular target: T1, FcγRIIa H (human, UniProt P12318 34-217)
T1 construct: extracellular domain; also called FcgRIIa H type; 2aH; not shown: His tag at the C terminus
T1 sequence (looked up): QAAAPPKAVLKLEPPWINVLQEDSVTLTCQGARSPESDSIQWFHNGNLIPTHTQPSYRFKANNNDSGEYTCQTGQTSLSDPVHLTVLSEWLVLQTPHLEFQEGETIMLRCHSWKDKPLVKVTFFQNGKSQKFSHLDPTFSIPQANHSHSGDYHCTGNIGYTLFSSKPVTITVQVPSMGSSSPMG
Assay: SPR Biacore, relative binding

Binder | Ho/Con_2aH
B1 | 119 % of GpH7-B3/GpL16-k0 (=100)
B2 | 110 % of GpH7-B3/GpL16-k0 (=100)
B3 | 101 % of GpH7-B3/GpL16-k0 (=100)
B4 | 131 % of GpH7-B3/GpL16-k0 (=100)
B5 | 100 % of GpH7-B3/GpL16-k0 (=100)
B6 | 118 % of GpH7-B3/GpL16-k0 (=100)
B7 | 114 % of GpH7-B3/GpL16-k0 (=100)
B8 | 105 % of GpH7-B3/GpL16-k0 (=100)
B9 | 108 % of GpH7-B3/GpL16-k0 (=100)
B10 | 130 % of GpH7-B3/GpL16-k0 (=100)
B11 | 114 % of GpH7-B3/GpL16-k0 (=100)
B12 | 100 % of GpH7-B3/GpL16-k0 (=100)
B13 | 101 % of GpH7-B3/GpL16-k0 (=100)
B14 | 103 % of GpH7-B3/GpL16-k0 (=100)
B15 | 101 % of GpH7-B3/GpL16-k0 (=100)
B16 | 102 % of GpH7-B3/GpL16-k0 (=100)
B17 | 125 % of GpH7-B3/GpL16-k0 (=100)
B18 | 111 % of GpH7-B3/GpL16-k0 (=100)
B19 | 117 % of GpH7-B3/GpL16-k0 (=100)
B20 | 108 % of GpH7-B3/GpL16-k0 (=100)
B21 | 110 % of GpH7-B3/GpL16-k0 (=100)
B22 | 105 % of GpH7-B3/GpL16-k0 (=100)
B23 | 126 % of GpH7-B3/GpL16-k0 (=100)
B24 | 101 % of GpH7-B3/GpL16-k0 (=100)
B25 | 111 % of GpH7-B3/GpL16-k0 (=100)
B26 | 110 % of GpH7-B3/GpL16-k0 (=100)
B27 | 121 % of GpH7-B3/GpL16-k0 (=100)
B28 | 105 % of GpH7-B3/GpL16-k0 (=100)

Binder | Ho/Con_2aH
B29 | 110 % of GpH7-B3/GpL16-k0 (=100)
B30 | 101 % of GpH7-B3/GpL16-k0 (=100)
B31 | 100 % of GpH7-B3/GpL16-k0 (=100)
B32 | 107 % of GpH7-B3/GpL16-k0 (=100)
B33 | 112 % of GpH7-B3/GpL16-k0 (=100)
B34 | 114 % of GpH7-B3/GpL16-k0 (=100)
B35 | 126 % of GpH7-B3/GpL16-k0 (=100)
B36 | 103 % of GpH7-B3/GpL16-k0 (=100)
B37 | 123 % of GpH7-B3/GpL16-k0 (=100)
B38 | 112 % of GpH7-B3/GpL16-k0 (=100)
B39 | 113 % of GpH7-B3/GpL16-k0 (=100)
B40 | 119 % of GpH7-B3/GpL16-k0 (=100)
B41 | 106 % of GpH7-B3/GpL16-k0 (=100)
B42 | 120 % of GpH7-B3/GpL16-k0 (=100)
B43 | 136 % of GpH7-B3/GpL16-k0 (=100)
B44 | 104 % of GpH7-B3/GpL16-k0 (=100)
B45 | 101 % of GpH7-B3/GpL16-k0 (=100)
B46 | 106 % of GpH7-B3/GpL16-k0 (=100)
B47 | 113 % of GpH7-B3/GpL16-k0 (=100)
B48 | 116 % of GpH7-B3/GpL16-k0 (=100)
B49 | 102 % of GpH7-B3/GpL16-k0 (=100)
B50 | 122 % of GpH7-B3/GpL16-k0 (=100)
B51 | 111 % of GpH7-B3/GpL16-k0 (=100)
B52 | 118 % of GpH7-B3/GpL16-k0 (=100)
B53 | 110 % of GpH7-B3/GpL16-k0 (=100)
B54 | 134 % of GpH7-B3/GpL16-k0 (=100)
B55 | 101 % of GpH7-B3/GpL16-k0 (=100)
